Laboratory results taken from patent US20240270874A1 (JIANGSU HENGRUI PHARMACEUTICALS, published 2024).
Changes are numbered by the printed parent chain. Names and notes keep the numbering of the source.

T1: human KLB on CHOK1-hKLB cells (human, UniProt Q86Z14 1-1044)
T1 construct: whole, on cells; also called human KLB antigen; β-Klotho
T1 sequence (looked up): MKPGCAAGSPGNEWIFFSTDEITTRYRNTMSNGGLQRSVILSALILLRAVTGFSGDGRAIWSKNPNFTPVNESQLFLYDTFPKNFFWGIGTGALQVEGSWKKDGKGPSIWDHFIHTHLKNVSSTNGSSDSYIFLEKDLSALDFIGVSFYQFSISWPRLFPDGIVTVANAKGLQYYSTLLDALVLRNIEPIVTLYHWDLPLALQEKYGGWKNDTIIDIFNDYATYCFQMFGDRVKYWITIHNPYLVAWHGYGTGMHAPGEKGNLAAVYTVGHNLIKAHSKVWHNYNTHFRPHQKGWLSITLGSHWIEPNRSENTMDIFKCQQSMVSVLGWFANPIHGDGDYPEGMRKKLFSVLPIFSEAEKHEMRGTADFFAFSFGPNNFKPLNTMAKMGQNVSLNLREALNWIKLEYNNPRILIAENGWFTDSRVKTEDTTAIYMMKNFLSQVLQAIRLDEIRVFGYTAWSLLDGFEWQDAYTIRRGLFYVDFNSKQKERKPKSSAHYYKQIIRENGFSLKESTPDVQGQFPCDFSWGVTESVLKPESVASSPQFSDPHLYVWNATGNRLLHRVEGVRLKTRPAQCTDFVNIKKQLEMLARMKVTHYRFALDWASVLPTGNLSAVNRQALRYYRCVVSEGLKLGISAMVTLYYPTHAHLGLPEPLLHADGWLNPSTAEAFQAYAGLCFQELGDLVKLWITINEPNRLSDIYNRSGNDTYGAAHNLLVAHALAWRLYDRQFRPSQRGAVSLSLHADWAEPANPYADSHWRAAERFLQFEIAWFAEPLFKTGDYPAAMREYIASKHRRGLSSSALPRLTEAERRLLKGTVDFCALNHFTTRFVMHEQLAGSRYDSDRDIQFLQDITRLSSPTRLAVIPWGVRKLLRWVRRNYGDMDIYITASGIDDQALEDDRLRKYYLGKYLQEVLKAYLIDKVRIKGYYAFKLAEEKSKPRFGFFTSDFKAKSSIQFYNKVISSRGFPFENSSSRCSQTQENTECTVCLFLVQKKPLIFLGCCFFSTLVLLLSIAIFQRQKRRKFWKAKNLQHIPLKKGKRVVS

B1: hAb99-6 (antibody, human IgG1, kappa, L234A L235A)
heavy: not shown
light: DIQMTQSPSSLSASVGDRVTITCRASKSISKFLAWFQQKPGKTNKLLIYSGSTLQSGVPSRFSGSGSGTDFTLTISSLQPEDFATYYCQQHNEYPWTFGGGTKVEIKRTVAAPSVFIFPPSDEQLKSGTASVVCLLNNFYPREAKVQWKVDNALQSGNSQESVTEQDSKDSTYSLSSTLTLSKADYEKHKVYACEVTHQGLSSPVTKSFNRGEC
notes: humanized mAb-99: hAb99VH2 + hAb99VL2; human IgG1 (L234A, L235A) / kappa constant regions
B2: hAb99-15 (antibody, human IgG1, kappa, L234A L235A, V domains shown)
VH: EVQLVQSGAEVKKPGASVKVSCKASGYTFTNYGINWVRQAPGQRLEWMGYIYIGQGDIEYNAKFKGRVTITSDTSASTAYMELSSLRSEDTAVYYCARGRGLGHFDVWGQGTTVTVSS
VL: DIQMTQSPSSLSASVGDRVTITCRASKSISKFLAWFQQKPGKTNKLLIYSGSTLQSGVPSRFSGSGSGTDFTLTISSLQPEDFATYYCQQHNEYPWTFGGGTKVEIKR
notes: humanized mAb-99: hAb99VH1-QG + hAb99VL2; human IgG1 (L234A, L235A) / kappa constant regions
B3: hAb99-9 (antibody, human IgG1, kappa, L234A L235A, V domains shown)
VH: B2 VH with A24T, R44G, Q55N, Y95F
VL: B2 VL with F36Y, T43A
notes: humanized mAb-99: hAb99VH3 + hAb99VL1; human IgG1 (L234A, L235A) / kappa constant regions
B4: hAb99-16 (antibody, human IgG1, kappa, L234A L235A, V domains shown)
VH: B2 VH with R44G, Q55N, G56V
VL: B2 VL
notes: humanized mAb-99: hAb99VH2-NV + hAb99VL2; human IgG1 (L234A, L235A) / kappa constant regions
B5: hAb99-4 (antibody, human IgG1, kappa, L234A L235A, V domains shown)
VH: B2 VH with Q55N
VL: B2 VL with I2V, M4I, Q38E, V58I
notes: humanized mAb-99: hAb99VH1 + hAb99VL4; human IgG1 (L234A, L235A) / kappa constant regions
B6: hAb99-18 (antibody, human IgG1, kappa, L234A L235A, V domains shown)
VH: B2 VH with R44G
VL: B2 VL
notes: humanized mAb-99: hAb99VH2-QG + hAb99VL2; human IgG1 (L234A, L235A) / kappa constant regions
B7: hAb99-1 (antibody, human IgG1, kappa, L234A L235A, V domains shown)
VH: B2 VH with Q55N
VL: B2 VL with F36Y, T43A
notes: humanized mAb-99: hAb99VH1 + hAb99VL1; human IgG1 (L234A, L235A) / kappa constant regions
B8: hAb99-10 (antibody, human IgG1, kappa, L234A L235A)
heavy: not shown
light: B1 light
notes: humanized mAb-99: hAb99VH3 + hAb99VL2; human IgG1 (L234A, L235A) / kappa constant regions
B9: hAb99-19 (antibody, human IgG1, kappa, L234A L235A, V domains shown)
VH: B2 VH with A24T, R44G, Q55N, G56V, Y95F
VL: B2 VL
notes: humanized mAb-99: hAb99VH3-NV + hAb99VL2; human IgG1 (L234A, L235A) / kappa constant regions
B10: hAb99-7 (antibody, human IgG1, kappa, L234A L235A)
heavy: not shown
light: B1 light with I2V, M4I
notes: humanized mAb-99: hAb99VH2 + hAb99VL3; human IgG1 (L234A, L235A) / kappa constant regions
B11: hAb99-21 (antibody, human IgG1, kappa, L234A L235A, V domains shown)
VH: B2 VH with A24T, R44G, Y95F
VL: B2 VL
notes: humanized mAb-99: hAb99VH3-QG + hAb99VL2; human IgG1 (L234A, L235A) / kappa constant regions
B12: hAb99-20 (antibody, human IgG1, kappa, L234A L235A, V domains shown)
VH: B2 VH with A24T, R44G, Q55N, G56L, Y95F
VL: B2 VL
notes: humanized mAb-99: hAb99VH3-NL + hAb99VL2; human IgG1 (L234A, L235A) / kappa constant regions
B13: hAb99-17 (antibody, human IgG1, kappa, L234A L235A, V domains shown)
VH: B2 VH with R44G, Q55N, G56L
VL: B2 VL
notes: humanized mAb-99: hAb99VH2-NL + hAb99VL2; human IgG1 (L234A, L235A) / kappa constant regions
B14: hAb99-8 (antibody, human IgG1, kappa, L234A L235A, V domains shown)
VH: B2 VH with R44G, Q55N
VL: B2 VL with I2V, M4I, Q38E, V58I
notes: humanized mAb-99: hAb99VH2 + hAb99VL4; human IgG1 (L234A, L235A) / kappa constant regions
B15: hAb99-11 (antibody, human IgG1, kappa, L234A L235A)
heavy: not shown
light: B1 light with I2V, M4I
notes: humanized mAb-99: hAb99VH3 + hAb99VL3; human IgG1 (L234A, L235A) / kappa constant regions
B16: hAb99-14 (antibody, human IgG1, kappa, L234A L235A, V domains shown)
VH: B2 VH with Q55N, G56L
VL: B2 VL
notes: humanized mAb-99: hAb99VH1-NL + hAb99VL2; human IgG1 (L234A, L235A) / kappa constant regions
B17: hAb99-12 (antibody, human IgG1, kappa, L234A L235A, V domains shown)
VH: B2 VH with A24T, R44G, Q55N, Y95F
VL: B2 VL with I2V, M4I, Q38E, V58I
notes: humanized mAb-99: hAb99VH3 + hAb99VL4; human IgG1 (L234A, L235A) / kappa constant regions
B18: hAb99-2 (antibody, human IgG1, kappa, L234A L235A)
heavy: not shown
light: B1 light
notes: humanized mAb-99: hAb99VH1 + hAb99VL2; human IgG1 (L234A, L235A) / kappa constant regions
B19: hAb99-5 (antibody, human IgG1, kappa, L234A L235A, V domains shown)
VH: B2 VH with R44G, Q55N
VL: B2 VL with F36Y, T43A
notes: humanized mAb-99: hAb99VH2 + hAb99VL1; human IgG1 (L234A, L235A) / kappa constant regions
B20: hAb99-3 (antibody, human IgG1, kappa, L234A L235A)
heavy: not shown
light: B1 light with I2V, M4I
notes: humanized mAb-99: hAb99VH1 + hAb99VL3; human IgG1 (L234A, L235A) / kappa constant regions
B21: hAb18-2 (antibody, human IgG1, kappa, L234A L235A, V domains shown)
VH: EVQLVQSGAEVKKPGASVKVSCKASGYTFTDYAMHWVRQAPGQRLEWMGVISTYSGTTNYNQNFKGRVTITVDKSASTAYMELSSLRSEDTAVYYCARSGPLDYWGQGTTVTVSS
VL: ENVLTQSPDFQSVTPKEKVTITCRASSSVSSSYLHWYQQKPDQSPKLWIYSTSNLASGVPSRFSGSGSGTDYTLTINSLEAEDAATYYCQQYSGYPLTFGQGTKLEIKR
notes: humanized mAb-18: hAb18VH1 + hAb18VL2; human IgG1 (L234A, L235A) / kappa constant regions
B22: hAb18-3 (antibody, human IgG1, kappa, L234A L235A, V domains shown)
VH: B21 VH with A24G, I70V
VL: B21 VL with N2I, Y72F
notes: humanized mAb-18: hAb18VH2 + hAb18VL1; human IgG1 (L234A, L235A) / kappa constant regions
B23: hAb18-5 (antibody, human IgG1, kappa, L234A L235A, V domains shown)
VH: B21 VH with A24G, M48I, V68A, I70V
VL: B21 VL with N2I, Y72F
notes: humanized mAb-18: hAb18VH3 + hAb18VL1; human IgG1 (L234A, L235A) / kappa constant regions
B24: hAb18-1 (antibody, human IgG1, kappa, L234A L235A, V domains shown)
VH: B21 VH
VL: B21 VL with N2I, Y72F
notes: humanized mAb-18: hAb18VH1 + hAb18VL1; human IgG1 (L234A, L235A) / kappa constant regions
B25: hAb18-6 (antibody, human IgG1, kappa, L234A L235A, V domains shown)
VH: B21 VH with A24G, M48I, V68A, I70V
VL: B21 VL
notes: humanized mAb-18: hAb18VH3 + hAb18VL2; human IgG1 (L234A, L235A) / kappa constant regions
B26: hAb18-7 (antibody, human IgG1, kappa, L234A L235A, V domains shown)
VH: B21 VH
VL: B21 VL with N54Q
notes: humanized mAb-18: hAb18VH1 + hAb18VL2-1; human IgG1 (L234A, L235A) / kappa constant regions
B27: hAb18-4 (antibody, human IgG1, kappa, L234A L235A, V domains shown)
VH: B21 VH with A24G, I70V
VL: B21 VL
notes: humanized mAb-18: hAb18VH2 + hAb18VL2; human IgG1 (L234A, L235A) / kappa constant regions

biological target: T1, human KLB on CHOK1-hKLB cells; assay: flow cytometry on CHOK1-hKLB cells
Excerpt: The above heavy chain variable regions were fused to the heavy chain constant region (set forth in SEQ ID NO: 22) and the light chain variable regions were fused to the light chain constant region (set forth in SEQ ID NO: 23) to construct anti-KLB antibodies, and the binding activity of the obtained antibodies for CHOK1-hKLB was detected (see Test Example 2 of the present disclosure for the experimental method).
The binding ability of the antibodies for CHOK1 cell strains CHOK1-hKLB and CHOK1-cynoKLB overexpressing human KLB and monkey KLB (see Example 1 for specific preparation procedure), respectively, was detected by flow cytometry. The specific procedure was as follows: the above cells were cultured in 10% FBS-containing IMDM medium and incubated in an incubator at 37° C. and 5% CO₂ for 2 days. The cells were then added to a cell plate at 1×10⁵ cells per well, centrifuged at 300 g for 5 min, and then washed once with 1% BSA. The antibody diluted in gradient was added to the cell plate at 100 μL per well, and the mixture was incubated at 4° C. for 1 h and washed once with 1% BSA. The diluted (1:400) APC-goat anti-human IgG Fc fluorescent secondary antibody was added at 100 μL per well, and the resulting mixture was incubated at 4° C. for 1 h. The plate was washed three times with 1% BSA, PBS was added at 100 μL per well, and the plate was read.

Binder	EC50 [nM]
B1	0.41
B2	0.41
B3	0.47
B4	0.47
B5	0.37
B6	0.43
B7	0.61
B8	0.36
B9	0.38
B10	0.35
B11	0.45
B12	0.41
B13	0.43
B14	0.39
B15	0.33
B16	0.6
B17	0.33
B18	0.35
B19	0.5
B20	0.35
B21	1.58
B22	1.9
B23	1.8
B24	1.34
B25	2
B26	2.4
B27	2
